In EP2168984B1:

Assays:
Assay in all cases: cell-based or functional assay
[1] = molecular target: recombinant human IL-12 (human) (UniProt P29459)
[2] = molecular target: Rhesus IL-12 (rhesus monkey) (UniProt P48091)
Baboon IL-12 (baboon) = molecular target: Baboon IL-12 (baboon)
[3] = molecular target: Cyno IL-12 (cynomolgus monkey)
murine IL-12 (mouse) = murine IL-12 (mouse) (UniProt P43431)
murine IL-12 (mouse), sequence (P43431 23-215, chain 1 of 2): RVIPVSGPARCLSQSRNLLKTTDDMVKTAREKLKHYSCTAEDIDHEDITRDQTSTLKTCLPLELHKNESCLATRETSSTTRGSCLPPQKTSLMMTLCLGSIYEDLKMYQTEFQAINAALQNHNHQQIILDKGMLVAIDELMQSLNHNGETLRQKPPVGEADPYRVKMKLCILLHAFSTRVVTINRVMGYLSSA
murine IL-12 (mouse), sequence (P43432 23-335, chain 2 of 2, further chain): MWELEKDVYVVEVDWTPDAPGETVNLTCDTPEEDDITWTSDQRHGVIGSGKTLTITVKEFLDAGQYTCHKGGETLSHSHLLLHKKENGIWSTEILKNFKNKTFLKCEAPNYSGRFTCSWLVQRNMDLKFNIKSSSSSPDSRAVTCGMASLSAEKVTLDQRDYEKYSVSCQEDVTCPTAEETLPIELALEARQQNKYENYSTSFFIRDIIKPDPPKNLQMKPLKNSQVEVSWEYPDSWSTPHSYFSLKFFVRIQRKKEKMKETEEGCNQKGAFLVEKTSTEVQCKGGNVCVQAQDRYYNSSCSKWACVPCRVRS

Rhesus IL-12 (rhesus monkey), sequence (P48091 23-219, chain 1 of 2): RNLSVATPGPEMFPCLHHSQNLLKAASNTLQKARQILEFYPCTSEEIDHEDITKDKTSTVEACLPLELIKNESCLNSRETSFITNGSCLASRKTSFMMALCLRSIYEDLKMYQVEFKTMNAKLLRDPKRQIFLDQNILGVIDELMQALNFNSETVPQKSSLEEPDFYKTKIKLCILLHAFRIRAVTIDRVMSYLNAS
Rhesus IL-12 (rhesus monkey), sequence (P48095 23-328, chain 2 of 2, further chain): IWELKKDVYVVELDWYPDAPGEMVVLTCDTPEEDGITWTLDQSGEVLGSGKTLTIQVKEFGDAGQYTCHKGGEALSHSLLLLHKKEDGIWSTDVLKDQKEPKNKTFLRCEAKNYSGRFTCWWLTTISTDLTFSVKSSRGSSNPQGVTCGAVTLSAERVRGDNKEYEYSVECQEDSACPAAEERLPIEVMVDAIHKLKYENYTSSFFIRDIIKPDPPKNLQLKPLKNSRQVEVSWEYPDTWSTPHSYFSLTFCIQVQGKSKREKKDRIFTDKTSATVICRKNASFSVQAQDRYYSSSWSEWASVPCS
recombinant human IL-12 (human), sequence (P29459 23-219, chain 1 of 2): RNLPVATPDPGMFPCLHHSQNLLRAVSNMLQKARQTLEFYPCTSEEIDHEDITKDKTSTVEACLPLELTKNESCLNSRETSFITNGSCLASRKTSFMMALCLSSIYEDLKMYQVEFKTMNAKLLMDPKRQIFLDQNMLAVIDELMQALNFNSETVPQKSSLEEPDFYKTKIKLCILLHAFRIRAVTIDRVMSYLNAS
recombinant human IL-12 (human), sequence (P29460 23-328, chain 2 of 2, further chain): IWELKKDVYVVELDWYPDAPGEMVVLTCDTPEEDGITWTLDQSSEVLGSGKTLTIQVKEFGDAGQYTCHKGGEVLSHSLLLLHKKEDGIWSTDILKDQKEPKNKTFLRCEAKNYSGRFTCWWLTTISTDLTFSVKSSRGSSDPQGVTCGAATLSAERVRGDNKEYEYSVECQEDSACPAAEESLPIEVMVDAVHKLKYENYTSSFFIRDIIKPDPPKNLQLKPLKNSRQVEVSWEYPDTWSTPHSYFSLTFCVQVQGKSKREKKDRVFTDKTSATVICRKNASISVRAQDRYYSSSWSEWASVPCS

IC50 (M), species cross reactivity bioassay [1] | IC50 (M), species cross reactivity bioassay [2] | IC50 (M), species cross reactivity bioassay (Baboon IL-12 (baboon)) | IC50 (M), species cross reactivity bioassay [3] | IC50 (M), species cross reactivity bioassay (murine IL-12 (mouse)) | PHA blast Assay IC50 (murine IL-12 (mouse)) | Substance
5e-11 M | 1e-10 M | 2e-10 M | 1.2e-10 M | – | – | C8.6.2 (antibody)
– | – | – | – | 3e-11 M | 0.014 nM | C17.15 (antibody)
